# Data taken from paper PMC2665219 (Nucleic Acids Research, 2009).
# Residue numbers refer to the chain shown, from its start. Numbers in names are those of the source. Like-named read-outs stand apart in the source and are kept apart here.
# B1: EbfC K16A mutant (natural protein, Borrelia burgdorferi strain B31, UniProt O51418 1-99, looked up)
# chain: MAVNPLDFLKNMSSVANNIDNIKKEISKITVCGKAGSNIVTIEMDGEFNVKKVSINKEFFDDLDNDAFEQMIKSALNDAVSKVKEEIKLKTMGVLPFGM
# B2: EbfC D20A mutant (natural protein, Borrelia burgdorferi strain B31, UniProt O51418 1-99, looked up)
# chain: B1 chain with A16K, D20A
# B3: EbfC K23A mutant (natural protein, Borrelia burgdorferi strain B31, UniProt O51418 1-99, looked up)
# chain: B1 chain with A16K, K23A
# B4: EbfC D78A mutant (natural protein, Borrelia burgdorferi strain B31, UniProt O51418 1-99, looked up)
# chain: B1 chain with A16K, D78A
# B5: EbfC K82A mutant (natural protein, Borrelia burgdorferi strain B31, UniProt O51418 1-99, looked up)
# chain: B1 chain with A16K, K82A
# B6: EbfC K84A mutant (natural protein, Borrelia burgdorferi strain B31, UniProt O51418 1-99, looked up)
# chain: B1 chain with A16K, K84A
# B7: EbfC E85A mutant (natural protein, Borrelia burgdorferi strain B31, UniProt O51418 1-99, looked up)
# chain: B1 chain with A16K, E85A
# B8: EbfC K88A mutant (natural protein, Borrelia burgdorferi strain B31, UniProt O51418 1-99, looked up)
# chain: B1 chain with A16K, K88A
# B9: b-WT (dsDNA)
# DNA 1: TTGTAATGAGTAGTGCATTTGCAATGGAGAGATTTTGGGGAGTTGTTTAAAATTACATTTGCGTTTTGTTAAAATGTAACAGCTGAATGTAACAAAATTATATATTTAAATCTTTGAAATATTGC
# DNA 2: GCAATATTTCAAAGATTTAAATATATAATTTTGTTACATTCAGCTGTTACATTTTAACAAAACGCAAATGTAATTTTAAACAACTCCCCAAAATCTCTCCATTGCAAATGCACTACTCATTACAA
# B10: b-C30 (dsDNA)
# DNA 1: B9 DNA 1 with T75C, G76A, T77C, A94T
# DNA 2: B9 DNA 2 with T32A, A49G, C50T, A51G
# B11: b-C40 (dsDNA)
# DNA 1: B9 DNA 1 with T75C, G76A, T77C, A91G
# DNA 2: B9 DNA 2 with T35C, A49G, C50T, A51G
# B12: b-C50 (dsDNA)
# DNA 1: B9 DNA 1 with T75C, G76A, T77C, A92T
# DNA 2: B9 DNA 2 with T34A, A49G, C50T, A51G
# B13: b-C2+3 (dsDNA)
# DNA 1: B9 DNA 1 with A72C, T75C, G76A, T77C
# DNA 2: B9 DNA 2 with A49G, C50T, A51G, T54G
# B14: b-C1/2+3 (dsDNA)
# DNA 1: B9 DNA 1 with A72C, T75C, G76A, T77C, T88C, G89A, T90C
# DNA 2: B9 DNA 2 with A36G, C37T, A38G, A49G, C50T, A51G, T54G
# B15: b-C20 (dsDNA)
# DNA 1: B9 DNA 1 with T75C, G76A, T77C, C93A
# DNA 2: B9 DNA 2 with G33T, A49G, C50T, A51G
# What was measured:
# SEC = biological target: the molecule itself; assay: SEC
# EbfC D20A = biological target: T1, EbfC D20A (Borrelia burgdorferi, UniProt O51418 1-99, D20A); assay: EMSA
# T1 sequence: B1 chain with A16K, D20A
# EbfC K88A = biological target: T2, EbfC K88A (Borrelia burgdorferi, UniProt O51418 1-99, K88A); assay: EMSA
# T2 sequence: B1 chain with A16K, K88A
# EbfC E85A = biological target: T3, EbfC E85A (Borrelia burgdorferi, UniProt O51418 1-99, E85A); assay: EMSA
# T3 sequence: B1 chain with A16K, E85A
# EbfC K23A = biological target: T4, EbfC K23A (Borrelia burgdorferi, UniProt O51418 1-99, K23A); assay: EMSA
# T4 sequence: B1 chain with A16K, K23A
# EbfC D78A = biological target: T5, EbfC D78A (Borrelia burgdorferi, UniProt O51418 1-99, D78A); assay: EMSA
# T5 sequence: B1 chain with A16K, D78A
# EbfC N77A = biological target: T6, EbfC N77A (Borrelia burgdorferi, UniProt O51418 1-99, N77A); assay: EMSA
# T6 sequence: B1 chain with A16K, N77A
# EbfC K82A = biological target: T7, EbfC K82A (Borrelia burgdorferi, UniProt O51418 1-99, K82A); assay: EMSA
# T7 sequence: B1 chain with A16K, K82A
# EbfC K84A = biological target: T8, EbfC K84A (Borrelia burgdorferi, UniProt O51418 1-99, K84A); assay: EMSA
# T8 sequence: B1 chain with A16K, K84A
# EbfC K16A = biological target: T9, EbfC K16A (Borrelia burgdorferi, UniProt O51418 1-99, K16A); assay: EMSA
# T9 sequence: B1 chain
# EbfC [1] = biological target: T10, EbfC (Borrelia burgdorferi, UniProt O51418 1-99); assay: EMSA
# T10 sequence: B1 chain with A16K
# EbfC [2] = biological target: T10, EbfC; assay: EMSA; remark: listed apart in the source
# EbfC [3] = biological target: T10, EbfC; assay: EMSA; remark: listed apart in the source
# EbfC [4] = biological target: T10, EbfC; assay: EMSA; remark: listed apart in the source
# EbfC [5] = biological target: T10, EbfC; assay: EMSA; remark: listed apart in the source
binder,measurement,setting,value
B1,stoichiometry N,SEC,2
B2,stoichiometry N,SEC,2
B3,stoichiometry N,SEC,2
B4,stoichiometry N,SEC,2
B5,stoichiometry N,SEC,2
B6,stoichiometry N,SEC,2
B7,stoichiometry N,SEC,2
B8,stoichiometry N,SEC,2
B9,binding result,EbfC D20A,no binding
same,binding result,EbfC K88A,no binding
same,binding result,EbfC E85A,no binding
same,binding result,EbfC K23A,no binding
same,binding result,EbfC D78A,no binding
same,binding result,EbfC N77A,no binding
same,binding result,EbfC K82A,no binding
same,binding result,EbfC K84A,no binding
same,binding result,EbfC K16A,no binding
same,Kd,EbfC [1],388 ± 108 nM
same,Kd,EbfC [2],313 nM
B10,binding result,EbfC [3],binds
B11,binding result,EbfC [3],binds
B12,binding result,EbfC [4],no binding
B13,binding result,EbfC [5],binds
B14,binding result,EbfC [5],binds
B15,binding result,EbfC [4],no binding
